In data set [1] the target is T1, Complement C1q (C1qA/C1qB/C1qC) (UniProt P02745;P02746;P02747 P02745:23-245,P02746:28-253,P02747:29-245). Put plainly: ELONA; estimated; C1q fixed at 0.625 nM. The settings on record: chain copies: 6; label: radiolabel (filter); biotin (pulldown, ELONA). The procedure: (§1) To further investigate the interaction of aptamer B1 and B11 with C1q, we performed a filter retention assay. Radioactively labelled B1 and B11 were incubated with increasing concentrations of purified C1q and subsequently passed through a nitrocellulose membrane. The amount of oligonucleotides retained on membrane-immobilized C1q was then quantified by autoradiography. […] Similar results were obtained with B11 and B11rc in an Enzyme-Linked Oligonucleotide Assay (ELONA; see U.S. Pat. No. 5,789,163, which patent is incorporated herein in its entirety). […] As a control, the reverse complement of B11, B11RC, was used (squares).
T1 sequence (P02745 23-245, chain 1 of 3): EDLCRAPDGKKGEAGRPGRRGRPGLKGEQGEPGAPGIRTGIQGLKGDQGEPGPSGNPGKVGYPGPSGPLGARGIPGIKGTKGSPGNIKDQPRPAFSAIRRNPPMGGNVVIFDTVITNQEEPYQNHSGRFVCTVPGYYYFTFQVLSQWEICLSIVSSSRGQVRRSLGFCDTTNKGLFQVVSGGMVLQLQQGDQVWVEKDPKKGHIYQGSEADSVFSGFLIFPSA
T1 sequence (P02746 28-253, chain 2 of 3): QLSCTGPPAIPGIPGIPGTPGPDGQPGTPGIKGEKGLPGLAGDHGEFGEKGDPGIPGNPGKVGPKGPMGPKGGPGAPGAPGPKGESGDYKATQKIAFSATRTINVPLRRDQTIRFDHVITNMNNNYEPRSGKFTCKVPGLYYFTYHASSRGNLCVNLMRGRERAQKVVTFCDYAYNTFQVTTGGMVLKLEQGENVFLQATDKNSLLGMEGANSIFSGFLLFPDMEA
T1 sequence (P02747 29-245, chain 3 of 3): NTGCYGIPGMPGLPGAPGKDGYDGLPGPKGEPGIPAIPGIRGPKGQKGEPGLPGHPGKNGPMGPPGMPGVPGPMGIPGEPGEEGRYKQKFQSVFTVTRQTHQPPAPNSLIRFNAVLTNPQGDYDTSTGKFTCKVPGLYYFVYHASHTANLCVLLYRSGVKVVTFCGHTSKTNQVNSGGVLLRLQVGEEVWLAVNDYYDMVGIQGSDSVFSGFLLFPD

Data set [2] concerns the target T1, Complement C1q (C1qA/C1qB/C1qC). Put plainly: FP filter; nitrocellulose filter retention; concentration dependent binding. The settings on record: chain copies: 6; label: radiolabel (filter); biotin (pulldown). The procedure:
as §1

The values below come from patent US20190359983, “TARGETED OLIGONUCLEOTIDES” (CARIS SCIENCE, INC., published 2019).

B1: 83S-B11 full (ssDNA)
DNA: CTAGCATGACTGCAGTACGTAACCCAATTCACATACACTCTCACCCCCACTAAACACTGTCTCTTATACACATCTGACGCTGCCGACGA
As for B1, the dissociation constant Kd – broadly, the concentration at which binding is half-saturated – in data set [1] is ~40 nM.

B2: 83S-B1 full (ssDNA)
DNA: CTAGCATGACTGCAGTACGTACTATAGAACAATCCACCGCTTTAAATCAACTATCTTACTGTCTCTTATACACATCTGACGCTGCCGACGA
As for B2, the binding result in data set [2] is “binds”.
